Patent publication US20210221891A1

Molecular target: human PD-L1 expressed on CHO-K1 cells (human) (UniProt Q9NZQ7)
Test: FACS binding to CHO-K1 cells stably expressing human PD-L1, FITC anti-human IgG secondary, Geo.Mean fluorescence vs log(nM) antibody

human PD-L1 expressed on CHO-K1 cells (human), sequence (Q9NZQ7 19-290): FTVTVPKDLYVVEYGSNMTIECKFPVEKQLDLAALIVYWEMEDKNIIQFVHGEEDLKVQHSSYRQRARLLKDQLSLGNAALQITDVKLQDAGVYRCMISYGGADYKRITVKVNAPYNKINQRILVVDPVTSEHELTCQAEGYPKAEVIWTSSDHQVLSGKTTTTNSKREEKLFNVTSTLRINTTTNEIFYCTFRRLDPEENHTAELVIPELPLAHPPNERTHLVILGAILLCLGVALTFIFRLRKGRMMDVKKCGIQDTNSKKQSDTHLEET

Q: How did the EC50 (read off the curve) turn out when Tecentriq® (antibody) was run?
A: The EC50 (read off the curve) was 20 nM.
